Test results taken from patent US20250243281A1 (IMMUNITAS THERAPEUTICS, published 2025).
Like-named read-outs stand apart in the source and are kept apart here.

T1: hCLEC2D (human, UniProt Q9UHP7 1-191)
T1 construct: Overexpressed on HEK293 or K562 cells; the same id is used for endogenous CLEC2D on NALM6 and Raji cells; also called LLT1
T1 sequence: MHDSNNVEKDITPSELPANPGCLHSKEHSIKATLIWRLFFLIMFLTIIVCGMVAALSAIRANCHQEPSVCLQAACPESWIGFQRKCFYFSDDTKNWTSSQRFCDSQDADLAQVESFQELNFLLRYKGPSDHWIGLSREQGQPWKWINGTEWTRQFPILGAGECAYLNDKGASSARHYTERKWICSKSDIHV

T2: hKLRF1 (human, UniProt Q9NZS2 1-231)
T2 construct: Overexpressed on HEK293 cells
T2 sequence: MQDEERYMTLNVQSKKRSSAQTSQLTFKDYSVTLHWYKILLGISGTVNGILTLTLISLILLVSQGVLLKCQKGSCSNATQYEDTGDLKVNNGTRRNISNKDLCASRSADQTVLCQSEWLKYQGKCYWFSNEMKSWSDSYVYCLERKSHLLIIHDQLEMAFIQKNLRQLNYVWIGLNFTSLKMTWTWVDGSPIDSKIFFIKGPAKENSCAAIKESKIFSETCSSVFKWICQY

T3: hKLRF2 (human, UniProt D3W0D1 1-207)
T3 construct: Overexpressed on HEK293 cells
T3 sequence: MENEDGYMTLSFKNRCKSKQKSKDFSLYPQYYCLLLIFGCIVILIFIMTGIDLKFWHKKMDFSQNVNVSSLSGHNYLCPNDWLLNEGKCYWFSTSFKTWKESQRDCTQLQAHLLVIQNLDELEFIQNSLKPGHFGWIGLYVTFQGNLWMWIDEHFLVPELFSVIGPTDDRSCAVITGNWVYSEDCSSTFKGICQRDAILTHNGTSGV

T4: hCLEC12B (human, UniProt Q2HXU8 1-276)
T4 construct: Overexpressed on HEK293 cells
T4 sequence: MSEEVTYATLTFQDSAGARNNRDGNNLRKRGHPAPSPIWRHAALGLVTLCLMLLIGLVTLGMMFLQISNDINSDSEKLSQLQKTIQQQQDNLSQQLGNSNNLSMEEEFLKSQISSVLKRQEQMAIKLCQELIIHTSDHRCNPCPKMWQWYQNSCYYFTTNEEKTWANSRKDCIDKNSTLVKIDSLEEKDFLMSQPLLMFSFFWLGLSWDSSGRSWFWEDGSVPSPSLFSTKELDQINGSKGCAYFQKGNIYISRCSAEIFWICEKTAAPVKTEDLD


Experiments:
hCLEC2D [1] = molecular target: T1, hCLEC2D; assay: flow cytometry; 100 nM antibody on HEK293 cells expressing CLEC2D; Alexa Fluor 647 anti-human IgG; MFI
Description: (§1) For the antibody binding assay, all cell lines were washed in phosphate-buffered saline with 0.1% bovine serum albumin (PBSA) and seeded in a 96 well plate at a density of 4×10⁴ cells per well. Washed cells were resuspended in 100 nM of antibody (a saturating concentration to measure maximum binding on cells) and incubated at room temperature for 30 minutes. […] Cells were analyzed by flow cytometry with a Thermo Fisher Attune flow cytometer.
(§2) Data were analyzed using FlowJo software. MFI for each sample was calculated and exported into Graphpad Prism.

hKLRF1 [2] = molecular target: T2, hKLRF1; assay: flow cytometry; 100 nM antibody on HEK293 cells expressing KLRF1; Alexa Fluor 647 anti-human IgG; MFI
Description: as §1, §2

hKLRF1 [3] = molecular target: T2, hKLRF1; assay: flow cytometry, HEK293 transfectants, 100 nM antibody;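 also: antibody applied at a saturating level and incubated with cells for 30 min at room temperature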
Description: as §1, §2

hKLRF2 [4] = molecular target: T3, hKLRF2; assay: as above
Description: as §1, §2

hCLEC2D [5] = molecular target: T1, hCLEC2D; assay: as above
Description: as §1, §2

hCLEC12B [6] = molecular target: T4, hCLEC12B; assay: as above
Description: as §1, §2

hKLRF2 [7] = molecular target: T3, hKLRF2; assay: flow cytometry; 100 nM antibody on HEK293 cells expressing KLRF2; Alexa Fluor 647 anti-human IgG; MFI
Description: as §1, §2

hKLRF1 [8] = molecular target: T2, hKLRF1; assay: flow cytometry; 100 nM antibody on HEK293 cells expressing KLRF1; Alexa Fluor 647 anti-human IgG; MFI; remark: listed apart in the source
Description: as §1, §2

hKLRF2 [9] = molecular target: T3, hKLRF2; assay: flow cytometry; 100 nM antibody on HEK293 cells expressing KLRF2; Alexa Fluor 647 anti-human IgG; MFI; remark: listed apart in the source
Description: as §1, §2

hCLEC12B [10] = molecular target: T4, hCLEC12B; assay: flow cytometry; 100 nM antibody on HEK293 cells expressing CLEC12B; Alexa Fluor 647 anti-human IgG; MFI
Description: as §1, §2

hCLEC2D [11] = molecular target: T1, hCLEC2D; assay: flow cytometry; 100 nM antibody on HEK293 cells expressing CLEC2D; Alexa Fluor 647 anti-human IgG; MFI; remark: listed apart in the source
Description: as §1, §2

| Binder | binding result (hCLEC2D [1]) | binding result (hKLRF1 [2]) | % of CD161 binding (hKLRF1 [3]) | % of CD161 binding (hKLRF2 [4]) | % of CD161 binding (hCLEC2D [5]) | % of CD161 binding (hCLEC12B [6]) | binding result (hKLRF2 [7]) | binding result (hKLRF1 [8]) | binding result (hKLRF2 [9]) | binding result (hCLEC12B [10]) | binding result (hCLEC2D [11]) |
| --- | --- | --- | --- | --- | --- | --- | --- | --- | --- | --- | --- |
| Ab11 (antibody, human IgG1, V domains shown, IgG purified from yeast culture) VH: EVQLLESGGGLVQPGGSLRLSCAASGFTFSQYAMSWVRQAPGKGLEWVSAISAAGGTTYYADSVKGRFTISRDNSKNTLYLQMNSLRAEDTAVYYCAKPLDSSQWADFDLWGRGTLVTVSS VL: DIQLTQSPSSVSASVGDRVTITCRASQGIYSWLAWYQQKPGKAPKLLIYAASSLQSGVPSRFSGSGSGTDFTLTISSLQPEDFATYYCQQASDLPITFGGGTKVEIK | no binding (tested: 100 nM) | no binding (tested: 100 nM) | 0.024% | 0.021% | 0.785% | -0.003% | no binding (tested: 100 nM) |  |  |  |  |
| Ab18 (antibody, human IgG1, V domains shown, IgG purified from yeast culture) VH: QVQLVESGGGLVKPGGSLRLSCAASGFTFSQYYMSWIRQAPGKGLEWVSYISPSGATIAYADSVKGRFTISRDNAKNSLYLQMNSLRAEDTAVYYCARSLMATGTHLYFDLWGRGTLVTVSS VL: DIQLTQSPSSVSASVGDRVTITCRASQGISSWLAWYQQKPGKAPKLLIYAAESLQSGVPSRFSGSGSGTDFTLTISSLQPEDFATYYCQQVTSQPPYTFGGGTKVEIK |  |  | 0.121% | 0.101% | 0.865% | 0.169% |  | no binding (tested: 100 nM) | no binding (tested: 100 nM) | no binding (tested: 100 nM) | no binding (tested: 100 nM) |

Continued, values first:

| binding result (hCLEC2D [1]) | binding result (hKLRF1 [2]) | % of CD161 binding (hKLRF1 [3]) | % of CD161 binding (hKLRF2 [4]) | % of CD161 binding (hCLEC2D [5]) | % of CD161 binding (hCLEC12B [6]) | binding result (hKLRF2 [7]) | binding result (hKLRF1 [8]) | binding result (hKLRF2 [9]) | binding result (hCLEC12B [10]) | binding result (hCLEC2D [11]) | Binder |
| --- | --- | --- | --- | --- | --- | --- | --- | --- | --- | --- | --- |
| no binding (tested: 100 nM) | no binding (tested: 100 nM) | 0.011% | -0.007% | 0.832% | -0.042% |  |  |  |  |  | Ab3 (antibody, human IgG1, V domains shown, IgG purified from yeast culture) VH: EVQLLESGGGLVQPGGSLRLSCAASGFTFERYAMSWVRQAPGKGLEWVSAISAAGGTTYYADSVKGRFTISRDNSKNTLYLQMNSLRAEDTAVYYCAKPLDSSQWADFDLWGRGTLVTVSS VL: DIQLTQSPSSVSASVGDRVTITCRASQDISSWLAWYQQKPGKAPKFLIYAASALQSGVPSRFSGSGSGTDFTLTISSLQPEDFATYYCQQALVLPITFGGGTKVEIK |
| no binding (tested: 100 nM) | no binding (tested: 100 nM) | 0.046% | 0.004% | 0.935% | -0.004% | no binding (tested: 100 nM) |  |  |  |  | Ab10 (antibody, human IgG1, V domains shown, IgG purified from yeast culture) VH: EVQLLESGGGLVQPGGSLRLSCAASGFTFSQYAMSWVRQAPGKGLEWVSAISAVGGSTYYADSVKGRFTISRDNSKNTLYLQMNSLRAEDTAVYYCAKPLDSSQWADFDLWGRGTLVTVSS VL: DIQLTQSPSSVSASVGDRVTITCRASQDISSWLAWYQQKPGKAPKLLIYAASALQSGVPSRFSGSGSGTDFTLTISSLQPEDFATYYCQQADVLPITFGGGTKVEIK |
|  |  | 0.065% | 0.055% | 1.16% | 0.061% |  | no binding (tested: 100 nM) | no binding (tested: 100 nM) | no binding (tested: 100 nM) | no binding (tested: 100 nM) | Ab12 (antibody, human IgG1, V domains shown, IgG purified from yeast culture) VH: QVQLVESGGGLVKPGGSLRLSCAASGFTFAQYYMSWIRQAPGKGLEWVSYISPSGSTIAYADSVKGRFTISRDNAKNSLYLQMNSLRAEDTAVYYCARSLMATGTHLYFDLWGRGTLVTVSS VL: DIQLTQSPSSVSASVGDRVTITCRASQDISSWLAWYQQKPGKAPKLLIYAASSLQSGVPSRFSGSGSGTDFTLTISSLQPEDFATYYCQQVTSFPPYTFGGGTKVEIK |
